Measurements from patent US20240115611A1 (KITE PHARMA, published 2024).

T1: CD20 (human CD20) (human, UniProt P11836 1-297)
T1 construct: whole, on cells; The cell line for each value is named under assay
T1 sequence (looked up): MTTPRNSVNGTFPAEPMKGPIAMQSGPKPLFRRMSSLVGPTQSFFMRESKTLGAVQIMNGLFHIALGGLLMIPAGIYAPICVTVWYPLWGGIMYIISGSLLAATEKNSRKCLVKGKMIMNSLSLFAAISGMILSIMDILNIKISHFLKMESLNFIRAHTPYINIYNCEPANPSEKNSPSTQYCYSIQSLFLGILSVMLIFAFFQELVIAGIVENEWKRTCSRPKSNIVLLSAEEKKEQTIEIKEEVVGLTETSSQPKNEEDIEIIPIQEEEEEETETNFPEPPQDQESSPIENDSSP


What was measured:
[1] = molecular target: T1, CD20 (human CD20); experiment: flow cytometry, purified IgG at 10 nM on Raji cells (CD20+), FITC-LC detection, ratio over negative control
Experimental: (§1) To determine cell binding by exemplary heavy chain variable domains and light chain variable domains of the present disclosure, purified IgGs were characterized for cell binding at a concentration of 10 nM by flow cytometry. Antibodies were incubated with CHO-S cells overexpressing CD20, Raji, and Namalwa CD20+ cell lines; and with EoL-1 and CHO-S CD20-cell lines. FITC-LC was used to detect IgGs. The ratio of binding over negative controls was calculated for each antibody.

[2] = molecular target: T1, CD20 (human CD20); experiment: flow cytometry, purified IgG at 10 nM on CHO-S cells overexpressing CD20, FITC-LC detection, ratio over negative control
Experimental: as §1

[3] = molecular target: T1, CD20 (human CD20); experiment: flow cytometry, purified IgG at 10 nM on Namalwa cells (CD20+), FITC-LC detection, ratio over negative control
Experimental: as §1

| Raji Cell Binding FON (Fold Over Negative) [1] [fold] | CHO-CD20 Cell Binding FOB (Fold Over Background) [2] [fold] | Namalwa Cell Binding FON (Fold Over Negative) [3] [fold] | Binder |
| --- | --- | --- | --- |
| 479 | 3620 | 19 | Ab4 (Exemplary Antibody Sequences 4), anti-CD20 antibody (antibody, V domains shown) VH: QVQLVQSGAEVKKPGASVKVSCKASGYTFKEYGISWVRQAPGQGLEWMGWISAYSGHTYYAQKLQGRVTMTTDTSTSTAYMELRSLRSDDTAVYYCARGPHYDDWSGFIIWFDPWGQGTLVTVSS VL: not shown |
| 562 | 3620 | 11 | Ab9 (Exemplary Antibody Sequences 9), anti-CD20 antibody (antibody, V domains shown) VH: QVQLQQWGAGLLKPSETLSLTCAVYGGSFSGYAWSWIRQPPGKGLEWIGEIDHRGFTNYNPSLKSRVTISVDTSKNQFSLKLSSVTAADTAVYYCARVRYDSSDSYYYSYDYGMDVWGQGTTVTVSS VL: not shown |
| 266 | 813 | 12 | Ab1 (Exemplary Antibody Sequences 1), anti-CD20 antibody (antibody, V domains shown) VH: QVQLQQWGAGLLKPSETLSLTCAVYGGSFSGYYWSWIRQPPGKGLEWIGEIDHSGSTNYNPSLKSRVTISVDTSKNQFSLKLSSVTAADTAVYYCARGGGSWYSNWFDPWGQGTMVTVSS VL: DIQMTQSPSTLSASVGDRVTITCRASQSISSWLAWYQQKPGKAPKLLIYDASSLESGVPSRFSGSGSGTEFTLTISSLQPDDFATYYCQQDRSLPPTFGGGTKVEIK |
| 186 | 3160 | 4 | Ab10 (Exemplary Antibody Sequences 10), anti-CD20 antibody (antibody, V domains shown) VH: QVQLQQWGAGLLKPSETLSLTCAVYGGSFQKYYWSWIRQPPGKGLEWIGEIDTSGFTNYNPSLKSRVTISVDTSKNQFSLKLSSVTAADTAVYYCARVGRYSYGYYITAFDIWGQGTTVTVSS VL: not shown |
| 101 | 2790 | 3 | Ab2 (Exemplary Antibody Sequences 2), anti-CD20 antibody (antibody, V domains shown) VH: QVQLQQWGAGLLKPSETLSLTCAVYGGSFSGIHWNWIRQPPGKGLEWIGDIDTSGSTNYNPSLKSRVTISVDTSKNQFSLKLSSVTAADTAVYYCARLGQESATYLGMDVWGQGTTVTVSS VL: not shown |

Continued, binder first:

| Binder | Raji Cell Binding FON (Fold Over Negative) [1] [fold] | CHO-CD20 Cell Binding FOB (Fold Over Background) [2] [fold] | Namalwa Cell Binding FON (Fold Over Negative) [3] [fold] |
| --- | --- | --- | --- |
| Ab8 (Exemplary Antibody Sequences 8), anti-CD20 antibody (antibody, V domains shown) VH: QVQLQQWGAGLLKPSETLSLTCAVYGGSFSRYVWSWIRQPPGKGLEWIGEIDSSGKTNYNPSLKSRVTISVDTSKNQFSLKLSSVTAADTAVYYCARVRYDSSDSYYYSYDYGMDVWGQGTTVTVSS VL: not shown | 562 | 3830 | 10 |
| Ab7 (Exemplary Antibody Sequences 7), anti-CD20 antibody (antibody, V domains shown) VH: QVQLQQWGAGLLKPSETLSLTCAVYGGSFEKYYWSWIRQPPGKGLEWIGEIYHSGLTNYNPSLKSRVTISVDTSKNQFSLKLSSVTAADTAVYYCARVRYDSSDSYYYSYDYGMDVWGQGTTVTVSS VL: not shown | 549 | 4080 | 11 |
| Ab3 (Exemplary Antibody Sequences 3), anti-CD20 antibody (antibody, V domains shown) VH: QLQLQESGPGLVKPSETLSLTCTVSGGSISSSSYYWGWIRQPPGKGLEWIGSIYYSGSTYYNPSLKSRVTISVDTSKNQFSLKLSSVTAADTAVYYCARETDYSSGMGYGMDVWGQGTTVTVSS VL: DIQMTQSPSSLSASVGDRVTITCRASQSINSYLNWYQQKPGKAPKLLIYAASSLQSGVPSRFSGSGSGTDFTLTISSLQPEDFATYYCQQSLADPFTFGGGTKVEIK | 316 | 2000 | 16 |
| Ab6 (Exemplary Antibody Sequences 6), anti-CD20 antibody (antibody, V domains shown) VH: QITLKESGPTLVKPTQTLTLTCTFSGFSLDTEGVGVGWIRQPPGKALEWLALIYFNDQKRYSPSLKSRLTITKDTSKNQVVLTMTNMDPVDTAVYYCARDTGYSRWYYGMDVWGQGTTVTVSS VL: DIQMTQSPSSVSASVGDRVTITCRASQGISSWLAWYQQKPGKAPKLLIYAASSLQSGVPSRFSGSGSGTDFTLTISSLQPEDFATYYCQQAYAYPITFGGGTKVEIK | 13 | 2520 | 2 |
| Ab5 (Exemplary Antibody Sequences 5), anti-CD20 antibody (antibody, V domains shown) VH: QVQLQESGPGLVKPSETLSLTCTVSGGSISSPDHYWGWIRQPPGKGLEWIGSIYASGSTFYNPSLKSRVTISVDTSKNQFSLKLSSVTAADTAVYYCARETDYSSGMGYGMDVWGQGTTVTVSS VL: DIQMTQSPSSLSASVGDRVTITCRASQSINSYLNWYQQKPGKAPKLLIYAASSLQSGVPSRFSGSGSGTDFTLTISSLQPEDFATYYCQQSLADPFTFGGGTKVEIK | 185 | 2480 | 17 |
